± gives the standard deviation of the averaged measurements.
Key:
Saccharomyces cerevisiae [1] = test: protein stability index of tFT-peptide fusion (C-terminal peptide) (PSI (0-1 scale)); higher = more stable (slower turnover); conditions: genetic background: wild type; temperature: 30 C
Saccharomyces cerevisiae [2] = test: as above
Procedure: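 MPS profiling in S. cerevisiae of the tFT-X12 degron library: putative degron peptides plus stable controls, 12 aa, fused to the C-terminus of a sfGFP-mCherry timer. Cells are FACS-sorted into 8 mCherry/sfGFP bins and deep-sequenced. PSI runs from 0 (unstable) to 1 (stable). Backgrounds are wild type, das1Δ and doa10Δ at 30 °C, and wild type, das1Δ, cdc34-1 and cdc53-1 at 37 °C; 2-3 technical replicates each.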

[3] = genetic background: cdc34-1, temperature: 37 C
[4] = genetic background: cdc53-1, temperature: 37 C
[5] = genetic background: das1 deletion, temperature: 30 C
[6] = genetic background: das1 deletion, temperature: 37 C
[7] = genetic background: doa10 deletion, temperature: 30 C
[8] = genetic background: wild type, temperature: 30 C
[9] = genetic background: wild type, temperature: 37 C
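Also: PSI is a weighted mean of sequencing reads over stability bins, variants kept only with over 10 reads, mCherry proximal and sfGFP distal, peptide attached via GGGS linker.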

Row | Sequence | protein stability index (Saccharomyces cerevisiae [1]) | protein stability index (Saccharomyces cerevisiae [2]; [3]) | protein stability index (Saccharomyces cerevisiae [2]; [4]) | protein stability index (Saccharomyces cerevisiae [2]; [5]) | protein stability index (Saccharomyces cerevisiae [2]; [6]) | protein stability index (Saccharomyces cerevisiae [2]; [7]) | protein stability index (Saccharomyces cerevisiae [2]; [8]) | protein stability index (Saccharomyces cerevisiae [2]; [9])
1 | AGCFFVVLCGFF | 0.431 ± 0.0071 | 0.436 ± 0.018 | 0.503 ± 0.04 | 0.334 ± 0.035 | 0.495 ± 0.016 | 0.311 ± 0.0056 | 0.326 ± 0.0067 | 0.4673 ± 0.0025
2 | LCHILAIIRRGA | 0.509 ± 0.05 | 0.691 ± 0.019 | 0.737 ± 0.032 | 0.596 ± 0.037 | 0.687 ± 0.013 | 0.429 ± 0.038 | 0.449 ± 0.05 | 0.624 ± 0.036
3 | SVSFFSLCTSSL | 0.487 ± 0.012 | 0.511 ± 0.033 | 0.596 ± 0.006 | 0.506 ± 0.023 | 0.541 ± 0.011 | 0.521 ± 0.033 | 0.507 ± 0.02 | 0.511 ± 0.021
4 | AIDLCIAVVGMV | 0.4439 ± 0.0022 | 0.479 ± 0.042 | 0.491 ± 0.029 | 0.338 ± 0.035 | 0.5106 ± 0.0023 | 0.311 ± 0.015 | 0.342 ± 0.026 | 0.4829 ± 0.001
5 | RCTFSFSFPFVL | 0.596 ± 0.15 | 0.738 ± 0.032 | 0.754 ± 0.034 | 0.601 ± 0.0084 | 0.768 ± 0.0096 | 0.5998 ± 0.0024 | 0.602 ± 0.023 | 0.729 ± 0.011
6 | MLCVFVFIWYFV | 0.235 ± 0.011 | 0.235 ± 0.03 | 0.279 ± 0.013 | 0.254 ± 0.011 | 0.359 ± 0.0048 | 0.218 ± 0.013 | 0.208 ± 0.024 | 0.307 ± 0.02
7 | GRVETIEFLFLR | 0.464 ± 0.025 | 0.455 ± 0.0049 | 0.4335 ± 0.0015 | 0.368 ± 0.038 | 0.525 ± 0.0074 | 0.656 ± 0.012 | 0.394 ± 0.044 | 0.508 ± 0.022
8 | GVLTVVLQVGVV | 0.393 ± 0.0095 | 0.299 ± 0.033 | 0.378 ± 0.053 | 0.309 ± 0.038 | 0.428 ± 0.019 | 0.282 ± 0.011 | 0.304 ± 0.02 | 0.407 ± 0.0063
9 | LPPFRFSLPFRR | 0.712 ± 0.019 | 0.692 ± 0.044 | 0.7531 ± 0.0018 | 0.671 ± 0.013 | 0.705 ± 0.023 | 0.64 ± 0.024 | 0.658 ± 0.019 | 0.71 ± 0.036
10 | SEVMVGLRLTLN | 0.416 ± 0.038 | 0.67 ± 0.051 | 0.728 ± 0.018 | 0.628 ± 0.033 | 0.7149 ± 0.0029 | 0.282 ± 0.0065 | 0.318 ± 0.03 | 0.545 ± 0.029
11 | VYEVELSVRVTV | 0.522 ± 0.063 | 0.552 ± 0.03 | 0.56 ± 0.013 | 0.435 ± 0.026 | 0.548 ± 0.0089 | 0.404 ± 0.0053 | 0.447 ± 0.035 | 0.51 ± 0.0073
12 | RHAHPLTAQLPL | 0.7048 ± 0.0032 | 0.683 ± 0.031 | 0.707 ± 0.024 | 0.657 ± 0.026 | 0.747 ± 0.0096 | 0.694 ± 0.021 | 0.671 ± 0.042 | 0.7168 ± 0.0032
13 | LVFPRWACSLVF | 0.3762 ± 0.00049 | 0.344 ± 0.0079 | 0.3661 ± 0.0021 | 0.307 ± 0.025 | 0.426 ± 0.0075 | 0.263 ± 0.0029 | 0.288 ± 0.037 | 0.406 ± 0.019
14 | VMWFVLVGLCIL | 0.473 ± 0.033 | 0.4219 ± 0.0041 | 0.449 ± 0.035 | 0.382 ± 0.044 | 0.506 ± 0.021 | 0.366 ± 0.0077 | 0.378 ± 0.018 | 0.496 ± 0.006
15 | SYFSVTLFFTVI | 0.38872 ± 0.00027 | 0.281 ± 0.015 | 0.383 ± 0.0059 | 0.298 ± 0.032 | 0.419 ± 0.0015 | 0.252 ± 0.02 | 0.272 ± 0.016 | 0.386 ± 0.024
16 | FVSFFRWLLVSI | 0.152 ± 0.028 | 0.267 ± 0.016 | 0.201 ± 0.04 | 0.358 ± 0.039 | 0.4432 ± 0.0011 | 0.211 ± 0.017 | 0.163 ± 0.015 | 0.218 ± 0.0089
17 | FPPRLIPLLARS | 0.372 ± 0.02 | 0.442 ± 0.028 | 0.4556 ± 0.00087 | 0.31 ± 0.044 | 0.511 ± 0.0063 | 0.2401 ± 0.0016 | 0.291 ± 0.025 | 0.4713 ± 0.0013
18 | VGIVWELGCWMG | 0.425 ± 0.019 | 0.365 ± 0.052 | 0.49 ± 0.03 | 0.325 ± 0.023 | 0.543 ± 0.023 | 0.2794 ± 0.00095 | 0.303 ± 0.021 | 0.508 ± 0.0067
19 | VVFWWGHLLVSA | 0.142 ± 0.024 | 0.03535 ± 6.3e-05 | 0.0483 ± 0.016 | 0.118 ± 0.031 | 0.113 ± 0.009 | 0.0877 ± 0.021 | 0.0919 ± 0.021 | 0.0854 ± 0.0074
20 | GHFILFWVFCFM | 0.369 ± 0.024 | 0.316 ± 0.058 | 0.39 ± 0.014 | 0.31 ± 0.046 | 0.453 ± 0.031 | 0.254 ± 0.0053 | 0.303 ± 0.023 | 0.409 ± 0.024

Row | Sequence | protein stability index (Saccharomyces cerevisiae [1]) | protein stability index (Saccharomyces cerevisiae [2]; [3]) | protein stability index (Saccharomyces cerevisiae [2]; [4]) | protein stability index (Saccharomyces cerevisiae [2]; [5]) | protein stability index (Saccharomyces cerevisiae [2]; [6]) | protein stability index (Saccharomyces cerevisiae [2]; [7]) | protein stability index (Saccharomyces cerevisiae [2]; [8]) | protein stability index (Saccharomyces cerevisiae [2]; [9])
21 | GDSVRVIIFCLN | 0.304 ± 0.081 | 0.465 ± 0.041 | 0.707 ± 0.086 | 0.339 ± 0.054 | 0.686 ± 0.068 | 0.119 ± 0.02 | 0.136 ± 0.027 | 0.1273 ± 0.00068
22 | PPTHDSPVWSPS | 0.743 ± 0.0086 | 0.677 ± 0.06 | 0.721 ± 0.023 | 0.672 ± 0.029 | 0.7438 ± 0.0025 | 0.667 ± 0.017 | 0.687 ± 0.02 | 0.7217 ± 0.0029
23 | CLVFGFLFFIVI | 0.404 ± 0.021 | 0.35 ± 0.028 | 0.411 ± 0.061 | 0.338 ± 0.026 | 0.449 ± 0.016 | 0.435 ± 0.016 | 0.35 ± 0.029 | 0.447 ± 0.037
24 | LVFPPVPSLVLC | 0.352 ± 0.0088 | 0.261 ± 0.018 | 0.278 ± 0.0066 | 0.277 ± 0.036 | 0.376 ± 0.013 | 0.192 ± 0.0059 | 0.223 ± 0.029 | 0.3099 ± 0.0013
25 | FLGVFFYFLLCV | 0.379 ± 0.03 | 0.235 ± 0.02 | 0.2583 ± 0.002 | 0.254 ± 0.026 | 0.35871 ± 0.00032 | 0.2529 ± 0.0012 | 0.239 ± 0.013 | 0.326 ± 0.0064
26 | FFLLFCASFLRC | 0.381 ± 0.014 | 0.281 ± 0.021 | 0.202 ± 0.01 | 0.317 ± 0.011 | 0.433 ± 0.053 | 0.3661 ± 0.0025 | 0.294 ± 0.029 | 0.354 ± 0.0037
27 | GRGVRLRVRLLL | 0.292 ± 0.1 | 0.664 ± 0.023 | 0.73 ± 0.031 | 0.606 ± 0.022 | 0.7 ± 0.019 | 0.185 ± 0.014 | 0.217 ± 0.006 | 0.43 ± 0.04
28 | SLRYRFLSFFFL | 0.282 ± 0.026 | 0.615 ± 0.038 | 0.72 ± 0.018 | 0.636 ± 0.055 | 0.7089 ± 0.0057 | 0.189 ± 0.015 | 0.208 ± 0.019 | 0.338 ± 0.023
29 | MLTYVVRSLVGY | 0.422 ± 0.029 | 0.484 ± 0.0066 | 0.4954 ± 0.0015 | 0.37 ± 0.045 | 0.527 ± 0.011 | 0.331 ± 0.017 | 0.375 ± 0.023 | 0.496 ± 0.018
30 | FLACYSSFLFVS | 0.149 ± 0.03 | 0.417 ± 0.034 | 0.576 ± 0.011 | 0.4917 ± 0.0018 | 0.587 ± 0.0092 | 0.0703 ± 0.024 | 0.0895 ± 0.022 | 0.136 ± 0.0035
31 | SSFDFVVSLCIY | 0.454 ± 0.041 | 0.501 ± 0.044 | 0.526 ± 0.052 | 0.39 ± 0.021 | 0.49 ± 0.015 | 0.347 ± 0.019 | 0.36 ± 0.013 | 0.476 ± 0.014
32 | FILLIFLSLLSP | 0.3211 ± 0.0026 | 0.352 ± 0.0047 | 0.416 ± 0.024 | 0.294 ± 0.029 | 0.454 ± 0.01 | 0.26 ± 0.0071 | 0.281 ± 0.043 | 0.427 ± 0.016
33 | FSFSFYFALASF | 0.4603 ± 0.00095 | 0.474 ± 0.047 | 0.514 ± 0.0099 | 0.425 ± 0.018 | 0.495 ± 0.011 | 0.41 ± 0.0077 | 0.422 ± 0.0075 | 0.483 ± 0.034
34 | WFIPRSVCRWLF | 0.135 ± 0.0067 | 0.515 ± 0.067 | 0.684 ± 0.028 | 0.611 ± 0.023 | 0.676 ± 0.033 | 0.0895 ± 0.017 | 0.0735 ± 0.026 | 0.116 ± 0.023
35 | VCALHSAPLLIF | 0.462 ± 0.023 | 0.453 ± 0.029 | 0.484 ± 0.017 | 0.352 ± 0.034 | 0.496 ± 0.0065 | 0.307 ± 0.005 | 0.362 ± 0.012 | 0.467 ± 0.00048
36 | LFLTSFRFLRLF | 0.162 ± 0.0047 | 0.337 ± 0.016 | 0.4813 ± 0.0027 | 0.509 ± 0.0094 | 0.597 ± 0.03 | 0.0803 ± 0.006 | 0.0691 ± 0.015 | 0.134 ± 0.03
37 | DFLSGRCIFFYV | 0.445 ± 0.0099 | 0.702 ± 0.029 | 0.797 ± 0.009 | 0.6451 ± 0.0058 | 0.762 ± 0.016 | 0.243 ± 0.014 | 0.277 ± 0.029 | 0.512 ± 0.011
38 | ALWFVLISILCL | 0.378 ± 0.007 | 0.316 ± 0.016 | 0.353 ± 0.026 | 0.312 ± 0.024 | 0.427 ± 0.03 | 0.304 ± 0.007 | 0.291 ± 0.017 | 0.3896 ± 0.0022
39 | SFRIWLFRFFFV | 0.407 ± 0.018 | 0.6 ± 0.034 | 0.669 ± 0.034 | 0.555 ± 0.047 | 0.651 ± 0.008 | 0.364 ± 0.025 | 0.372 ± 0.016 | 0.541 ± 0.032

From the supplement of paper PMC10724198
